# Patent US20190177408A1 (SUZHOU CONNECT BIOPHARMACEUTICALS, published 2019)
# Positions count from the first letter of the chain named.
# B1: L1000H1007 (antibody, V domains shown)
# VH: EVQLVQSGGGLVHPGGSLRLSCAGSGFTFSRNAMFWVRQAPGKGLEWVSGIGTGGATSYADSVKGRFTISRDNAKNSLYLQMNSLRAEDMAVYYCARGRYYFDYWGQGTLVTVSS
# VL: not shown
# notes: human kappa
# B2: L1013H1000 (antibody, V domains shown)
# VH: B1 VH with S58N
# VL: EIVLTQSPGTLSLSPGERATLSCRASQSVSNSYLAWYQQKPGQAPRLLIFGASSRATGIPDRFSGSGSGTDFTLTISRLEPEDFAVYYCQQYDHSPPWTFGQGTKVEIK
# notes: human kappa
# B3: L1000H1029 (antibody, V domains shown)
# VH: B1 VH with Q6E, H13Q, G24A, D103P, Y104W
# VL: not shown
# notes: human kappa
# B4: L1010H1000 (antibody, V domains shown)
# VH: B1 VH with S58N
# VL: not shown
# notes: human kappa
# B5: L1000H1020 (antibody, V domains shown)
# VH: B1 VH with D103P, Y104W
# VL: not shown
# notes: human kappa
# B6: L1016H1000 (antibody, V domains shown)
# VH: B1 VH with S58N
# VL: B2 VL with N31S
# notes: human kappa
# B7: L1000H1036 (antibody, V domains shown)
# VH: B1 VH with K43E, S58N
# VL: not shown
# notes: human kappa
# B8: L1000H1013 (antibody, V domains shown)
# VH: B1 VH with Q6E, G24A, S58N
# VL: not shown
# notes: human kappa
# B9: L1000H1024 (antibody, V domains shown)
# VH: B1 VH with H13Q, M90T, D103P, Y104W
# VL: not shown
# notes: human kappa
# B10: L1000H1028 (antibody, V domains shown)
# VH: B1 VH with H13Q, G24A, M90T, D103P, Y104W
# VL: not shown
# notes: human kappa
# B11: L1000H1022 (antibody, V domains shown)
# VH: B1 VH with M90T, D103P, Y104W
# VL: not shown
# notes: human kappa
# B12: L1020H1007 (antibody, V domains shown)
# VH: B1 VH
# VL: B2 VL with N31S, F50Y, P96A, P97G
# notes: human kappa
# B13: L1000H1035 (antibody, V domains shown)
# VH: B1 VH with F35H, S58N
# VL: not shown
# notes: human kappa
# B14: L1007H1000 (antibody, V domains shown)
# VH: B1 VH with S58N
# VL: not shown
# notes: human kappa
# B15: L1012H1000 (antibody, V domains shown)
# VH: B1 VH with S58N
# VL: not shown
# notes: human kappa
# B16: L1020H1031 (antibody, V domains shown)
# VH: B1 VH with Q6E, H13Q, G24A, M90T
# VL: B2 VL with N31S, F50Y, P96A, P97G
# notes: human kappa
# B17: L1000H1031 (antibody, V domains shown)
# VH: B1 VH with Q6E, H13Q, G24A, M90T
# VL: not shown
# notes: human kappa
# B18: L1000H1027 (antibody, V domains shown)
# VH: B1 VH with Q6E, G24A, M90T, D103P, Y104W
# VL: not shown
# notes: human kappa
# B19: L1011H1000 (antibody, V domains shown)
# VH: B1 VH with S58N
# VL: B2 VL with T57P, D93G, H94S
# notes: human kappa
# B20: L1020H1000 (antibody, V domains shown)
# VH: B1 VH with S58N
# VL: B2 VL with N31S, F50Y, P96A, P97G
# notes: human kappa
# B21: L1000H1021 (antibody, V domains shown)
# VH: B1 VH with S58N, M90T, D103P, Y104W
# VL: not shown
# notes: human kappa
# B22: L1000H1012 (antibody, V domains shown)
# VH: B1 VH with M90T
# VL: not shown
# notes: human kappa
# B23: L1000H1025 (antibody, V domains shown)
# VH: B1 VH with G24A, M90T, D103P, Y104W
# VL: not shown
# notes: human kappa
# B24: L1012H1031 (antibody, V domains shown)
# VH: B1 VH with Q6E, H13Q, G24A, M90T
# VL: not shown
# notes: human kappa
# B25: L1020H1020 (antibody, V domains shown)
# VH: B1 VH with D103P, Y104W
# VL: B2 VL with N31S, F50Y, P96A, P97G
# notes: human kappa
# B26: L1012H1020 (antibody, V domains shown)
# VH: B1 VH with D103P, Y104W
# VL: not shown
# notes: human kappa
# B27: L1000H1010 (antibody, V domains shown)
# VH: B1 VH with H13Q, S58N
# VL: not shown
# notes: human kappa
# B28: L1000H1026 (antibody, V domains shown)
# VH: B1 VH with Q6E, H13Q, M90T, D103P, Y104W
# VL: not shown
# notes: human kappa
# B29: L1017H1000 (antibody, V domains shown)
# VH: B1 VH with S58N
# VL: not shown
# notes: human kappa
# B30: L1008H1000 (antibody, V domains shown)
# VH: B1 VH with S58N
# VL: not shown
# notes: human kappa
# B31: L1000H1030 (antibody, V domains shown)
# VH: B1 VH with Q6E, H13Q, G24A, S58N, M90T, D103P, Y104W
# VL: not shown
# notes: human kappa
# B32: L1020H1016 (antibody, V domains shown)
# VH: B1 VH with S58N, D103P, Y104W
# VL: B2 VL with N31S, F50Y, P96A, P97G
# notes: human kappa
# B33: L1020H1027 (antibody, V domains shown)
# VH: B1 VH with Q6E, G24A, M90T, D103P, Y104W
# VL: B2 VL with N31S, F50Y, P96A, P97G
# notes: human kappa
# B34: L1000H1008 (antibody, V domains shown)
# VH: B1 VH with S58N, M90T
# VL: not shown
# notes: human kappa
# B35: L1012H1029 (antibody, V domains shown)
# VH: B1 VH with Q6E, H13Q, G24A, D103P, Y104W
# VL: not shown
# notes: human kappa
# B36: L1012H1007 (antibody, V domains shown)
# VH: B1 VH
# VL: not shown
# notes: human kappa
# B37: L1015H1000 (antibody, V domains shown)
# VH: B1 VH with S58N
# VL: B2 VL with N31S, T57P
# notes: human kappa
# B38: L1000H1037 (antibody, V domains shown)
# VH: B1 VH with S58N, N73E
# VL: not shown
# notes: human kappa
# Biological target: T1, human soluble IL-4Rα (sIL-4Rα) (human, UniProt P24394 26-232)
# T1 construct: Bought reagent (PEPRO TECH, Catalog Number 200-04R); also called shIL-4Rα; soluble hIL-4 Rα
# T1 sequence: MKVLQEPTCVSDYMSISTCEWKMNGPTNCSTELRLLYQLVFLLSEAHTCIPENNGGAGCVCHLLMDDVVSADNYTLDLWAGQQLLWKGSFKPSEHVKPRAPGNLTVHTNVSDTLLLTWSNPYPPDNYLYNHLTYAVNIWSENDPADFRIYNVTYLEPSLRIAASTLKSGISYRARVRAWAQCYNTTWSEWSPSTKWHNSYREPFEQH
# Assay: ELISA, coated sIL-4Rα, culture supernatant
# Protocol: 100 μl of 100 μg/ml sIL-4Rα solution was added to 9.90 ml of PBS, mixed up and down, and then an antigen coating buffer of 1.0 μg/ml was obtained. The prepared antigen coating buffer was added to a 96-well ELISA plate (Corning) with a volume of 100 μl per well. The 96-well ELISA plate was incubated overnight in a refrigerator at 4° C. On the next day; the solution therein was discarded; and PBS containing 2% BSA was added to the 96-well ELISA plate row by row with a volume of 300 μl per well. The 96-well ELISA plate was incubated for 2 hours in a refrigerator at 4° C., Then the PBS containing 2% BSA was discarded and the plate was washed 3 times with PBST. Diluted antibodies to be tested were sequentially added to the corresponding wells, while the normal cell culture supernatants, as negative control samples, were added too. Three duplicate wells were made for each sample with a volume of 100 μl per well. The ELISA plate was wrapped with preservative film (or covered) and incubated for 1 h at […] in a constant temperature incubator. Subsequently, the 96-well ELISA plate was taken out, and the solution therein was discarded. After washing with PBST for 3 times, TMB solution (Solarbio, Catalog Number: PR1200) was added to the 96-well ELISA plate row by row with a volume of 100 μl per well. The 96-well ELISA plate was placed at room temperature for 5 minutes, and 2 M H2SO4 solution was added in immediately to terminate the reaction. The 96-well ELISA plate was placed in flexstation 3 (Molecular Devices), the values of OD450 were read, and the data were collected, calculated and analyzed. Results were expressed relative to the affinity of control antibody 1.
row,Binder,OD 450/OD450Control antibody 1
1,B1,0.37
2,B2,0.24
3,B3,0.8
4,B4,1
5,B5,0.23
6,B6,0.27
7,B7,0.1
8,B8,0.38
9,B9,0.26
10,B10,0.33
11,B11,0.18
12,B12,0.4
13,B13,0.22
14,B14,0.8
15,B15,1.22
16,B16,1.12
17,B17,1.14
18,B18,0.44
19,B19,0.9

row,Binder,OD 450/OD450Control antibody 1
1,B20,2.27
2,B21,0.35
3,B22,0.18
4,B23,0.21
5,B24,0.16
6,B25,0.26
7,B26,0.11
8,B27,0.11
9,B28,0.11
10,B29,0.49
11,B30,0.9
12,B31,0.2
13,B32,0.8
14,B33,0.4
15,B34,0.21
16,B35,0.11
17,B36,0.4
18,B37,0.67
19,B38,-0.01
